Key:
[1] = molecular target: Mouse ACVR2A (mouse, UniProt P27038 20-135, limits assumed); experiment: ELISA
Procedure, shortened: (§1)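 Monoclonal antibodies were first applied to human or mouse ACVR2A, alongside biotinylated goat anti-human kappa light chain (positive control) and human Fc (negative control); binding was then determined by ELISA.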

[2] = molecular target: T1, Human ACVR2A (human, UniProt P27037 20-135, limits assumed); experiment: ELISA
T1 construct: also called activin receptor, type II A
T1 sequence (P27037 20-135 limits assumed): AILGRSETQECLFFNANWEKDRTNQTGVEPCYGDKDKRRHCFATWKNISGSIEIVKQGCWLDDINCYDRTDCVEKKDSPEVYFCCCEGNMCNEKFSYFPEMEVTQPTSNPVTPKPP
Procedure, shortened: as §1

[3] = molecular target: T2, Goat anti-Human Kappa; experiment: ELISA; positive control
T2 construct: Positive control; also called biotinylated goat anti-human kappa light chain
Procedure, shortened: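 mAb binding by ELISA; antigens: hu ACVR2A, mu ACVR2A; pos ctrl biotinylated goat anti-hu kappa LC; neg ctrl hu Fc.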
Note: test concentration or dose not given here.

Mouse ACVR2A, sequence (P27038 20-135 limits assumed): as the sequence (P27037 20-135 limits assumed) above, with K20R, V73I counted along it

| Binder | optical density [1] | optical density [2] | optical density [3] |
| --- | --- | --- | --- |
| 368_G03 (antibody, V domains shown, VH/VL only) VH: EVQLLESGGGLVQPGGSLRLSCAASGFTFSSYSMNWVRQAPGKGLEWVSGINYNSGYTSYADSVKGRFTISRDNSKNTLYLQMNSLRAEDTAVYYCARGATWHDTALDYWGQGTLVTVSS VL: DIQMTQSPSSLSASVGDRVTITCRASQSILSYLNWYQQKPGKAPKLVIYAATSRASGVPSRFSGSGSGTDFTLTISSLQPEDFATYYCQQSYDTPLTFGGGTKVEIK | 2.75 OD | 2.73 OD | 3.39 OD |
| 370_C07 (antibody, V domains shown, VH/VL only) VH: EVQLLESGGGLVQPGGSLRLSCAASGFTFSSYSMNWVRQAPGKGLEWVANINYNGGYKSYADSVKGRFTISRDNSKNTLYLQMNSLRAEDTAVYYCARGATWHDTHLDYWGQGTLVTVSS VL: DIQMTQSPSSLSASVGDRVTITCRASQSILSYLNWYQQKPGKAPKLLIYAATSRHSGVPSRFSGSGSGTDFTLTISSLQPEDFATYYCQQSYESPLTFGGGTKVEIK | 3.37 OD | 3.35 OD | 3.3 OD |
| 369_G05 (antibody, V domains shown, VH/VL only) VH: EVQLLESGGGLVQPGGSLRLSCAASGFTFSSYSMNWVRQAPGKGLEWVAGINYNGGYTSYADSVKGRFTISRDNSKNTLYLQMNSLRAEDTAVYYCARGATWHDTHLDYWGQGTLVTVSS VL: DIQMTQSPSSLSASVGDRVTITCRASQSIVSYLNWYQQKPGKAPKLLIYAATSRHSGVPSRFSGSGSGTDFTLTISSLQPEDFATYYCQQSYDSPLTFGGGTKVEIK | 3.28 OD | 3.04 OD | 3.31 OD |
| 369_C12 (antibody, V domains shown, VH/VL only) VH: EVQLLESGGGLVQPGGSLRLSCAASGFTFSSYGMNWVRQAPGKGLEWVANINYNGGYKGYADSVKGRFTISRDNSKNTLYLQMNSLRAEDTAVYYCARGATWHDTHLDYWGQGTLVTVSS VL: DIQMTQSPSSLSASVGDRVTITCRASQSILTYLNWYQQKPGKAPKLLIYAATSRHSGVPSRFSGSGSGTDFTLTISSLQPEDFATYYCQQSYDTPLTFGGGTKVEIK | 3.45 OD | 3.43 OD | 3.74 OD |
| 368_G10 (antibody, V domains shown, VH/VL only) VH: EVQLLESGGGLVQPGGSLRLSCAASGFTFSSYSMHWVRQAPGKGLEWVSSINYNGGYTSYADSVKGRFTISRDNSKNTLYLQMNSLRAEDTAVYYCARGATWHDTHLDYWGQGTLVTVSS VL: DIQMTQSPSSLSASVGDRVTITCRASQSIVSYVNWYQQKPGKAPKLVIYAATSRASGVPSRFSGSGSGTDFTLTISSLQPEDFATYYCQQSYDTPLTFGGGTKVEIK | 2.28 OD | 2.06 OD | 3.45 OD |
| 369_H12 (antibody, V domains shown, VH/VL only) VH: EVQLLESGGGLVQPGGSLRLSCAASGFTFSSYSMNWVRQAPGKGLEWVAGINYNGGYKSYADSVKGRFTISRDNSKNTLYLQMNSLRAEDTAVYYCARGATWHDTHLDYWGQGTLVTVSS VL: DIQMTQSPSSLSASVGDRVTITCRASQSIVTYVNWYQQKPGKAPKLVIYAATSRASGVPSRFSGSGSGTDFTLTISSLQPEDFATYYCQQSYDSPLTFGGGTKVEIK | 3.42 OD | 3.46 OD | 3.65 OD |
| 370_C06 (antibody, V domains shown, VH/VL only) VH: EVQLLESGGGLVQPGGSLRLSCAASGFTFSSYSMNWVRQAPGKGLEWVANINYNGGYKSYADSVKGRFTISRDNSKNTLYLQMNSLRAEDTAVYYCARGATWHDTHLDYWGQGTLVTVSS VL: DIQMTQSPSSLSASVGDRVTITCRASQSILTYVNWYQQKPGKAPKLLIYAASSLQSGVPSRFSGSGSGTDFTLTISSLQPEDFATYYCQQSYSTPLTFGGGTKVEIK | 3.41 OD | 3.14 OD | 3.55 OD |
| 368_H06 (antibody, V domains shown, VH/VL only) VH: EVQLLESGGGLVQPGGSLRLSCAASGFTFDSYGMHWVRQAPGKGLEWVANINYNGGYKSYADSVKGRFTISRDNSKNTLYLQMNSLRAEDTAVYYCARGATWHDTHLDYWGQGTLVTVSS VL: DIQMTQSPSSLSASVGDRVTITCRASQSILTYVNWYQQKPGKAPKLLIYATTSRASGVPSRFSGSGSGTDFTLTISSLQPEDFATYYCQQSYDNPLTFGGGTKVEIK | 2.65 OD | 2.35 OD | 3.61 OD |
| 369_E05 (antibody, V domains shown, VH/VL only) VH: EVQLLESGGGLVQPGGSLRLSCAASGFTFSDYGMNWVRQAPGKGLEWVANINYNGGYKSYADSVKGRFTISRDNSKNTLYLQMNSLRAEDTAVYYCARGATWHDTHLDYWGQGTLVTVSS VL: DIQMTQSPSSLSASVGDRVTITCRASQSILTYLNWYQQKPGKAPKLLIYAATSLASGVPSRFSGSGSGTDFTLTISSLQPEDFATYYCQQSYETPLTFGGGTKVEIK | 1.64 OD | 1.41 OD | 1.9 OD |
| 369_E08 (antibody, V domains shown, VH/VL only) VH: EVQLLESGGGLVQPGGSLRLSCAASGFTFSSYSMNWVRQAPGKGLEWVASINYNSGYTGYADSVKGRFTISRDNSKNTLYLQMNSLRAEDTAVYYCARGATWHDTHLDYWGQGTLVTVSS VL: DIQMTQSPSSLSASVGDRVTITCRASQSILTYVNWYQQKPGKAPKLLIYAATSRASGVPSRFSGSGSGTDFTLTISSLQPEDFATYYCQQSYDSPLTFGGGTKVEIK | 1.23 OD | 1.03 OD | 1.12 OD |
| 370_C10 (antibody, V domains shown, VH/VL only) VH: EVQLLESGGGLVQPGGSLRLSCAASGFTFDSYSMNWVRQAPGKGLEWVSNINYNSGYKGYADSVKGRFTISRDNSKNTLYLQMNSLRAEDTAVYYCARGATWHDTHLDYWGQGTLVTVSS VL: DIQMTQSPSSLSASVGDRVTITCRASQSIVSYVNWYQQKPGKAPKLLIYATTSRASGVPSRFSGSGSGTDFTLTISSLQPEDFATYYCQQSYSSPLTFGGGTKVEIK | 1.38 OD | 1.3 OD | 3.35 OD |
| 369_A11 (antibody, V domains shown, VH/VL only) VH: EVQLLESGGGLVQPGGSLRLSCAASGFTFDSYGMNWVRQAPGKGLEWVANINYNGGYKGYADSVKGRFTISRDNSKNTLYLQMNSLRAEDTAVYYCARGATWHDTHLDYWGQGTLVTVSS VL: DIQMTQSPSSLSASVGDRVTITCRASQSIITYLNWYQQKPGKAPKLVIYAATSRHSGVPSRFSGSGSGTDFTLTISSLQPEDFATYYCQQSYESPLTFGGGTKVEIK | 2.77 OD | 2.64 OD | 3.29 OD |
| 368_H11 (antibody, V domains shown, VH/VL only) VH: EVQLLESGGGLVQPGGSLRLSCAASGFTFDSYGMHWVRQAPGKGLEWVASINYNGGYTSYADSVKGRFTISRDNSKNTLYLQMNSLRAEDTAVYYCARGATWHDTHLDYWGQGTLVTVSS VL: DIQMTQSPSSLSASVGDRVTITCRASQSILSYLNWYQQKPGKAPKLLIYAATSRASGVPSRFSGSGSGTDFTLTISSLQPEDFATYYCQQSDDTPLTFGGGTKVEIK | 2.13 OD | 1.95 OD | 3.51 OD |
| 369_D08 (antibody, V domains shown, VH/VL only) VH: EVQLLESGGGLVQPGGSLRLSCAASGFTFSDYSMNWVRQAPGKGLEWVASINYNGGYKGYADSVKGRFTISRDNSKNTLYLQMNSLRAEDTAVYYCARGATWHDTHLDYWGQGTLVTVSS VL: DIQMTQSPSSLSASVGDRVTITCRASQSILTYLNWYQQKPGKAPKLLIYAATSRASGVPSRFSGSGSGTDFTLTISSLQPEDFATYYCQQSYDTPLTFGGGTKVEIK | 3.13 OD | 2.94 OD | 3.06 OD |
| 369_F09 (antibody, V domains shown, VH/VL only) VH: EVQLLESGGGLVQPGGSLRLSCAASGFTFSSYGMHWVRQAPGKGLEWVAGINYNGGYTSYADSVKGRFTISRDNSKNTLYLQMNSLRAEDTAVYYCARGATWHDTHLDYWGQGTLVTVSS VL: DIQMTQSPSSLSASVGDRVTITCRASQSILTYVNWYQQKPGKAPKLLIYAATSRASGVPSRFSGSGSGTDFTLTISSLQPEDFATYYCQQSYDSPLTFGGGTKVEIK | 3.38 OD | 3.23 OD | 3.6 OD |
| 369_F05 (antibody, V domains shown, VH/VL only) VH: EVQLLESGGGLVQPGGSLRLSCAASGFTFSSYSMNWVRQAPGKGLEWVSGINYNGGYKSYADSVKGRFTISRDNSKNTLYLQMNSLRAEDTAVYYCARGATWHDTHLDYWGQGTLVTVSS VL: DIQMTQSPSSLSASVGDRVTITCRASQSISSYLNWYQQKPGKAPKLLIYAASSLQSGVPSRFSGSGSGTDFTLTISSLQPEDFATYYCQQGYDSPLTFGGGTKVEIK | 0.931 OD | 0.796 OD | 3.46 OD |
| 370_B08 (antibody, V domains shown, VH/VL only) VH: EVQLLESGGGLVQPGGSLRLSCAASGFTFSDYSMNWVRQAPGKGLEWVANINYNGGYTGYADSVKGRFTISRDNSKNTLYLQMNSLRAEDTAVYYCARGATWHDTHLDYWGQGTLVTVSS VL: DIQMTQSPSSLSASVGDRVTITCRASQSILSYLNWYQQKPGKAPKLLIYAASSLQSGVPSRFSGSGSGTDFTLTISSLQPEDFATYYCQQSYDSPLTFGGGTKVEIK | 3.25 OD | 3.13 OD | 3.35 OD |
| 369_H08 (antibody, V domains shown, VH/VL only) VH: EVQLLESGGGLVQPGGSLRLSCAASGFTFSSYSMNWVRQAPGKGLEWVAGINYNSGYKSYADSVKGRFTISRDNSKNTLYLQMNSLRAEDTAVYYCARGATWHDTHLDYWGQGTLVTVSS VL: DIQMTQSPSSLSASVGDRVTITCRASQSILSYVNWYQQKPGKAPKLVIYAATSLASGVPSRFSGSGSGTDFTLTISSLQPEDFATYYCQQSYESPLTFGGGTKVEIK | 3.23 OD | 3.16 OD | 3.56 OD |
| 369_H02 (antibody, V domains shown, VH/VL only) VH: EVQLLESGGGLVQPGGSLRLSCAASGFTFDDYSMNWVRQAPGKGLEWVSNINYNGGYKSYADSVKGRFTISRDNSKNTLYLQMNSLRAEDTAVYYCARGATWHDTHLDYWGQGTLVTVSS VL: DIQMTQSPSSLSASVGDRVTITCRASQSIISYLNWYQQKPGKAPKLLIYAATSRASGVPSRFSGSGSGTDFTLTISSLQPEDFATYYCQQSYDSPLTFGGGTKVEIK | 3.29 OD | 3.09 OD | 3.57 OD |

From patent US20210380703A1 (RIGEL PHARMACEUTICALS, published 2021)
